The target in experiment [1] is T1, ACKR4-HA (human) (UniProt Q9NPB9).
T1 sequence: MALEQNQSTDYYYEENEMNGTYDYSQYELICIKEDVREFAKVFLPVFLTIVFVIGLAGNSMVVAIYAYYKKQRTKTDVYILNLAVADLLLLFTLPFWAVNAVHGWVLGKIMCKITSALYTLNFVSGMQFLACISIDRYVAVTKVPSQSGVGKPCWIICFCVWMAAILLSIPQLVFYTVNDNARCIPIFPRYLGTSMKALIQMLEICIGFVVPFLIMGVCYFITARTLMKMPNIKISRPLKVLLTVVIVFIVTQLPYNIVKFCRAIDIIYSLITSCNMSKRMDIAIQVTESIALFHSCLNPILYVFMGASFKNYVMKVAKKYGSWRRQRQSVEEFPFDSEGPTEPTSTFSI

For experiment [2], the target named is T1, ACKR4-HA (human). This is another data set of the same source.

smBiT-βarrestin1, sequence (P49407 whole entry): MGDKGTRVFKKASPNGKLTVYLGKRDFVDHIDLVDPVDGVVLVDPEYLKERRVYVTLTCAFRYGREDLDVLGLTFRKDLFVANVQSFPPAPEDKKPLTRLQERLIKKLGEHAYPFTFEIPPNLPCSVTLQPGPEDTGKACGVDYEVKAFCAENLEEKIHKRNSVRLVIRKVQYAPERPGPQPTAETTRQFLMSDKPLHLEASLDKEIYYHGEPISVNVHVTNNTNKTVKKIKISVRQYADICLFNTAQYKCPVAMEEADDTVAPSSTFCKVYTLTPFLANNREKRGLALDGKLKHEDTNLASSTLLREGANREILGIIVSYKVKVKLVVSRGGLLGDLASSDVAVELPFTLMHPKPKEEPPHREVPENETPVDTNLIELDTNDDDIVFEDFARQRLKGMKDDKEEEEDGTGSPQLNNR
smBiT-βarrestin2, sequence (P32121 whole entry): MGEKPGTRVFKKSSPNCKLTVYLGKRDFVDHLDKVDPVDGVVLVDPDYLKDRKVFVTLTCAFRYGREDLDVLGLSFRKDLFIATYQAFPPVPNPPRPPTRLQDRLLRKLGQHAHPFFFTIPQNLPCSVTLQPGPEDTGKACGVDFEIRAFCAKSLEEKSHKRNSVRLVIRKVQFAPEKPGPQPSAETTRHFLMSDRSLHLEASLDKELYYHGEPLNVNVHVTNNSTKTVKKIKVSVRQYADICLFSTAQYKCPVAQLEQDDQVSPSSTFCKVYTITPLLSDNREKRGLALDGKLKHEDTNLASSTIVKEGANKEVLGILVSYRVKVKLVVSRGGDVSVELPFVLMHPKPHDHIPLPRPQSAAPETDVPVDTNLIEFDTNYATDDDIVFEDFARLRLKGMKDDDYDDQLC

Take “smBiT-βarrestin1 (from UniProt P49407 1-418) (natural protein)”: the bystander NanoBiT (smBiT-βarrestin1 with lgBiT-CAAX) in HEK293: CCL19-driven recruitment to the plasma membrane, as compared to native ACKR4 (% of native ACKR4) with ACKR4-HA (human) [1] came out at 42. In the experiment with ACKR4-HA (human) [2], this substance came in with a bystander NanoBiT (smBiT-βarrestin1 with lgBiT-CAAX) in HEK293: pre-association with the plasma membrane in the absence of CCL19, as compared to cells expressing native ACKR4 (times higher than native ACKR4) of 2.9.

Substance “smBiT-βarrestin2 (from UniProt P32121 1-409) (natural protein)” showed a bystander NanoBiT (smBiT-βarrestin2 with lgBiT-CAAX) in HEK293: CCL19-driven recruitment to the plasma membrane, as compared to native ACKR4 (% of native ACKR4) with ACKR4-HA (human) [1] of 27. In addition, the bystander NanoBiT (smBiT-βarrestin2 with lgBiT-CAAX) in HEK293: pre-association with the plasma membrane in the absence of CCL19, as compared to cells expressing native ACKR4 (times higher than native ACKR4) in the experiment with ACKR4-HA (human) [2] was 3.3.

Values taken from article PMC11610291.
